US20020147146A1
Non-standard residues stand in square brackets, D forms with d. No end group written: not given here. pS = N[C@@H](COP(=O)(O)O)C(=O)O

Columns and labels:
[1] = test system: T1, peptide #4 ILSRRPEYR (9ECREB)
T1 sequence: ILSRRPEYR

[2] = test system: T2, peptide #1 KRREILSRRPS(p)YR (derived from CREB protein)
T2 sequence: KRREILSRRPSYR

[3] = test system: T3, peptide #2 KRREILSRRPSYR (non-phosphorylated CREB peptide)
T3 sequence: KRREILSRRPSYR

[4] = test system: T4, peptide #3 ILSRRPS(p)YR (p9CREB)
T4 sequence: ILSRRPSYR

[5] = test system: T5, 9CREB ILSRRPSYR (non-phosphorylated peptide)
T5 sequence: ILSRRPSYR

[6] = target: purified recombinant rabbit GSK-3 (glycogen synthase kinase-3) (rabbit); experiment: cell-based or functional assay
[7] = target: purified recombinant rabbit GSK-3 (glycogen synthase kinase-3) (rabbit); experiment: in vitro kinase assay of purified GSK-3 with PGS-1 substrate and 32P-ATP, Lineweaver-Burk analysis (competitive inhibition)

## purified recombinant rabbit GSK-3 (glycogen synthase kinase-3)
[1]
  time course of peptide phosphorylation by GSK-3: 9CREB and 9ECREB completely failed to be phosphorylated by GSK-3
[2]
  kinetic property (phosphorylation by GSK-3): A substrate
[3]
  kinetic property (phosphorylation by GSK-3): Not a substrate
[4]
  kinetic property (phosphorylation by GSK-3): A substrate
  time course of peptide phosphorylation by GSK-3: only the phosphorylated peptide, p9CREB, was a substrate for GSK-3
[5]
  time course of peptide phosphorylation by GSK-3: 9CREB and 9ECREB completely failed to be phosphorylated by GSK-3

## KRREILARRP[pS]YR [peptide #5 …(p)YR]
[6]
  IC50, inhibition of GSK-3 (in vitro kinase assay): 330 µM
  IC50, inhibition of GSK-3 phosphorylation of PGS-1 substrate (32P incorporation): 150 µM

## KEEPPAPPQ[pS]P [peptide #7 …(p)P (patterned after HSF-1 protein)]
[6]
  IC50, inhibition of GSK-3 (in vitro kinase assay): 250 µM

## KEAPPAPPQ[pS]P [peptide #8 …(p)P]
[6]
  IC50, inhibition of GSK-3 (in vitro kinase assay): 190 µM
[7]
  Ki: 76 µM
